Measurements: patent US20150056223A1, “PHARMACEUTICAL COMPOSITION FOR THE PREVENTION OR TREATMENT OF NON-ALCOHOLIC FATTY LIVER DISEASE” (HANMI SCIENCE CO., LTD, priority 2012, published 2015)

Target: GLP-1 receptor of RIN-m5F rat insulinoma cells (rat) (UniProt P32301)

Substance	In-vitro titer (%) (EC50 of cAMP in RIN-m5F cells, compared)
Exendin-4(Lys27)-PEG-Fc	6.3
Exendin-4(N)-PEG-Fc	< 0.2
